# Patent US20120207760A1 (THERACLONE SCIENCES, published 2012)
# Target: M2 protein of influenza A/Puerto Rico/8/34 (H1N1), on inactivated virus (Influenza A virus A/Puerto Rico/8/34 …, UniProt P06821 1-97)
# Experiment: surface plasmon resonance, Fab fragment on influenza virus
# Sequence of M2 protein of influenza A/Puerto Rico/8/34 (H1N1), on inactivated virus (P06821 whole entry, the tested form may be a part): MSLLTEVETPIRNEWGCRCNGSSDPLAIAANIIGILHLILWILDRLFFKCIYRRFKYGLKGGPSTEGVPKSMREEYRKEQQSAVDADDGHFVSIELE
Binder,Kd,koff,kon
"TCN-032 Fab fragment (Fab, V domains shown) VH: QVQLQESGPGLVKPSETLSLTCTVSGSSISNYYWSWIRQSPGKGLEWIGFIYYGGNTKYNPSLKSRVTISQDTSKSQVSLTMSSVTAAESAVYFCARASCSGGYCILDYWGQGTLVTVS VL: DIQMTQSPSSLSASVGDRVTITCRASQNIYKYLNWYQQRPGKAPKGLISAASGLQSGVPSRFSGSGSGTDFTLTITSLQPEDFATYYCQQSYSPPLTFGGGTRVEIK",3.2 nM,0.0023 s⁻¹,740000 M⁻¹ s⁻¹
"TCN-031 Fab fragment (Fab, V domains shown) VH: EVQLVESGGGLVQPGGSLRISCAASGFTVSSNYMSWVRQAPGKGLEWVSVIYSGGSTYYADSVKGRFSFSRDNSKNTVFLQMNSLRAEDTAVYYCARCLSRMRGYGLDVWGQGTTVTVS VL: DIQMTQSPSSLSASVGDRVTITCRTSQSISSYLNWYQQKPGKAPKLLIYAASSLQSGVPSRFSGSGSGTDFTLTISGLQPEDFATYYCQQSYSMPAFGQGTKLEIK",14 nM,0.014 s⁻¹,1e+06 M⁻¹ s⁻¹

# Target: Hemagglutinin of influenza A/Japan/305/57 (H2N2), on inactivated whole virions (Influenza A virus A/Japan/305/1957 …, UniProt P03451 16-562)
# Experiment: ELISA, B cell culture supernatant on inactivated whole virions
row,Binder,OD450
1,"TCN-543 (5081_G23) (antibody, V domains shown) VH: QVHLVQSGAEVRKPGDSVKVSCKTSGYTFSTYPVAWVRQVPGQGLEWMGWISTYNGNTNFAQNFQGRVTLTTDTTTNTAYMEVRSLKFDDTAVYYCARVEGSYRDFWNNQNRFDPWGQGTLVTVSS VL: SYVLTQPPSVSVAPGQTARISCGGSNIGGKSVHWYQQKPGQAPVLVVYDDSGRPSGIPERFSGSNSGDTATLTISRVEAGDEADYFCQVWDNFGGVFGTGTKVTVL",3.62 OD450
2,"TCN-550 (5096_F06) (antibody, V domains shown) VH: QVQLQESGPGLVKPSETLSLTCTVSGASINSHYWSWIRQPPGKGLEWIGYVYYSGSTTYNPSLKSRVTLSVDTSKNQFSLNLSSVTAADTAFYYCARHPYDVLTGSGDWFDPWGQGTLVTVSS VL: SYVLTQAPSVSVAPGQTARITCGGNAIGSKKVHWYQHKAGQAPVLVVYDDTDRPSGIPERFSGSNSWSTATLTINRVEAGDEADYYCQVWDFTIDHVVFGGGTKLTVL",0.06 OD450
3,"TCN-548 (5092_P01) (antibody, V domains shown) VH: QVQLQESGPGLVKPSETLSLTCTVSSGPMSDYYWSWIRQPPGKGLEWIGHVSVSHGGRTKSNPSVMSRVTISVETSKNQFSLKLTSVTAADTAVYYCARLNYYDRSGYHSPDGPSNNWFDPWGQGTLVTVSS VL: not shown",0.09 OD450
4,"TCN-555 (5246_L16) (antibody, V domains shown) VH: QVQLVQSGAEVKRPGSSVKVSCTASGGIFRKNAISWVRQAPGQGLEWMGGIIAVFNTANYAQKFQNRVKITADESGNTAYMELSSLTSDDTAVYYCASHPKYFYGSGSYPDFWGQGTLVTVSS VL: QSALTQPRSVSGSPGQSITISCTGGSSDIGASNSVSWYQQHPGKAPKLVIFDVTERPSGVPHRFSGSKSGNTASLTVSGLQPDDEADYFCCAYGGKYLVVFGGGTKVTVL",0.6 OD450
5,"TCN-552 (5249_I23) (antibody, V domains shown) VH: QVQVVQSGAEVKKPGSSVRVSCQASGGTFMNYAIIWVRRAPGQGLEWMGGIIPVFPTPNYAQMFQGRVTISTDESRSTSFLELTNLRYEDTAVYYCARRIYHGGNSGFDFWGQGTLVTVSS VL: EIVLTQSPATLSLSPGERATLSCRASQSVGNYLAWYQQKPGQAPRLLIYDSSNRAPGIPARFSGSGSGTDFTLTISSLAPEDFAVYYCQQRSKWPPMYSFGHGTKLEIK",0.71 OD450
6,"TCN-553 (5261_C18) (antibody, V domains shown) VH: QVQVVQSGTEVKKPGSSVKVSCQTSGGRFMSYAITWVRQAPGQGLEWMGGIVPVFGTANYAQKFQGRVTITTDDSTRTAYMELSSLRSEDTAVYYCGFRYGSGYGFDSWGQGTLVTVSS VL: EIVLTQSPGTLSLSPGERATLSCRASQSVSSSYLAWYQKKPGQAPRLLIYGASTRATGIPDRFTGSGSGTDFTLSISRLEPEDFAVYYCQHFGTSVFTFGGGTKVEIK",2.54 OD450
7,"TCN-556 (5089_K12) (antibody, V domains shown) VH: QVQLVQSGAEVKKPGASVKVSCKASGYTFIGYDMHWVRQAPGQGLEWMGWINAKRGGTNYAQKFQGRVTMTRDTSISTAYMELNSLRSDDTAVYYCARGVGSRTTIFGVLNPEFDYWGQGTLVTVSS VL: QSALTQPPSASGSPGQSVTISCTGSSSDVGGYDYVSWYQQHPGKAPKLLIYEVTKRPSGVPDRFSGSKSGNTASLTVSGLQAEDEADYYCSSYAGNYNHVFGPGTKVTVL",2.41 OD450
8,"TCN-545 (5082_I15) (antibody, V domains shown) VH: QVQLQQWGAGLLKPSETLSLSCAVFGGSFSDYYWTWIRQPPGKGLEWIGEIKHSGRTNYNPSLESRVTISVDTSKNQFSLKLSSVTAADTAIYYCARGTDPDTEGYCRSGSCSAFDFWGQGTLVTVSS VL: EIVLTQSPGTLSLSPGERATLSCRASHFVNYRSLAWYQQTPGQVPRLLIYGASTRATGIPDRFSGSGSGTDFTLTISRLEPEDFAVYFCQQYGGSPRYTFGQGTRLEIK",0.06 OD450
9,"TCN-544 (5082_A19) (antibody, V domains shown) VH: QVQLQESGPGLVKPSETLSLTCTVSRGSIGHYFWSWIRQPPGKGLEWIGYISYSGSTKYNPSLRSRVTISVDTSKNQFSLNLNSVTATDTALYYCAREDYDILTGAGPGMEVWGQGTTVTVSS VL: QSMLTQPPSASGTPGQRVTISCSGSSSNIGSNTVNWFKHLPGTAPKLLIYRNDLRPSGVPDRFSGSKSGTSASLAISGLQSEDEADYYCATWDDSLNGFYVFGTGTKVTVL",0.07 OD450
10,"TCN-546 (5089_L08) (antibody, V domains shown) VH: QVQLQQWGAGLLKPSETLSLTCGVYGGSLSDYYWSWIRQPPGKGLEWIGEINHSGGTNYNPSLKRRVTISVDTSKKQFSLKMNSVTAADTAVYYCARGTDPDTEVYCRAGNCAAFDFWGQGTLVTVSS VL: EIVLTQSPGTLSLSPGERATLSCRASHFVIGRAVAWYQQKPGQAPRLLIYGASSRATGIPDRFSGSGSGTDFTLTISRLETEDFAVFYCQHYGSSPRYAFGQGTKLEIK",0.06 OD450
11,"TCN-557 (5081_A04) (antibody, V domains shown) VH: QVQLVQSGAEVKKPGASVKVSCKASGHTFTGYYIHWVRQAPGQGLEWMGWINPDSGATSSAQNFQGRVTMTGDTSSSTAYMELSRLSFDDTAVYYCARVLFTSPFDFWGEGTLVTVSS VL: QAVVTQEPSLAVSPGGTVTLTCGSSTGAVTRGHYPYWFQQKPGQAPRALIYDSAGNRHSWTPARFSGSLLGGKAALTLSGAQPEDEAEYYCLLSYSGVWVFGGGTKLTVL",2.7 OD450
12,"TCN-547 (5092_F11) (antibody, V domains shown) VH: QVQLQESGPGLVKPSQTLSLTCTVSGDSISSVDHYWSWIRQHPVKGLEWIGFMYYSASTYYNPSLKSRVTISTDTSKNQFSLRLSSVTAADTAVYYCARGTCAGDCSLHYYYYGLDVWGQGRTVTVSS VL: DIQMTQSPSSLSASVGDRVTITCRASQSISSYLNWYQHKPGKAPKVLMYAVSILQSGVPSRFSGSGSGADFTLTISSLQPEDFATYYCQQSYSSPLTFGGGTKVEIK",0.07 OD450
13,"TCN-549 (5092_P04) (antibody, V domains shown) VH: QVQLVQSGAEVKKPGASVKVSCKASGYTFTGYYMHWVRQAPGQGLEWMGWINPNSGDTNYAQKFQGRVTMTRDTSITTAYMELSSLRSDDTAVYYCARDSPYSSSWSFFDYWGQGPLVTVSS VL: not shown",0.08 OD450
14,"TCN-560 (5084_P10) (antibody, V domains shown) VH: EVQLVESGGGLVQPGGSLRLSCAASGFIFRNYWMSWVRQAPGKGLEWVANIKQDGREKYYVDSLRGRVNISRDNAENSLYLHMNSLRVEDTAVYFCARARMVVVTGDGFDVWGHGTMVTVSS VL: DIQMTQSPSSLSASVGDRVTITCRASQNIKRYFNWYQQKPGKAPKLLIYAASNLENGVPSRFSGSGSGTDFTLTISSLQPEDFATYYCQQSFSKSWTFGQGTNVDIK",2.07 OD450
